T1: human Tyro3 (rhTyro3/Dtk-Fc chimera) (Homo sapiens, UniProt Q06418)
T1 construct: Soluble recombinant antigens corresponding to the extracellular domains of members of the human TAM receptor family; purchased R&D Systems 859-DK
T1 sequence (Q06418 41-429 limits assumed): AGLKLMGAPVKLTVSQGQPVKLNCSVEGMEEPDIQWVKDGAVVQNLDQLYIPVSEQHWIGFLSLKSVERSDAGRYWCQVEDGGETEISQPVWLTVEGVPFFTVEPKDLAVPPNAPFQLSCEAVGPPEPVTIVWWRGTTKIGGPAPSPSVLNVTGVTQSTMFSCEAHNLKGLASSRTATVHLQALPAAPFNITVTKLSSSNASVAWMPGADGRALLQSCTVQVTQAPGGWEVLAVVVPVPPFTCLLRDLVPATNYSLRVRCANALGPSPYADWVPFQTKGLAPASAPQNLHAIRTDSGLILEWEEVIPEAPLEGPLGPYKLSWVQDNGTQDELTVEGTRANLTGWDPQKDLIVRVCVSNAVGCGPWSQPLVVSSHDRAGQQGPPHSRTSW


Key:
[1] = molecular target: T2, human Axl (rhAxl-Fc chimera) (Homo sapiens, UniProt P30530); experiment: Biacore binding analysis on immobilized human Axl; conditions: 10 μg/mL, 25° C.
T2 construct: Soluble recombinant antigens corresponding to the extracellular domains of members of the human TAM receptor family; purchased R&D Systems 154-AL
Method: (§1) All binding experiments were performed using Biacore 3000 instrument (GE Healthcare) at 25° C. Soluble recombinant antigens corresponding to the extracellular domains of members of the human TAM receptor family, Axl (rhAxl-Fc chimera; R&D Systems, Cat. no. 154-AL), Mer (rhMer-Fc chimera; R&D Systems, Cat. no. 891-MR) and Tyro3 (rhTyro3/Dtk-Fc chimera; R&D Systems, Cat. no. 859-DK) were immobilized on the surface of CM5 sensor chip using amine coupling at the surface density of 393.0, 303.6 and 364.0 resonance units (RU), respectively. The Biacore run was performed in an automatic mode using Binding analysis wizard. Samples containing either MAb 10C9 or MAb 10G5 at concentration 10 μg/mL in HBS-EP buffer (GE Healthcare) were injected over the surfaces with immobilized antigens at flow rate of 30 μL/min for 3 min (association) followed by 5 min dissociation.
(§2) The binding experiments were performed using Biacore 3000 instrument (GE Healthcare) at 25° C. The soluble recombinant antigens corresponding to human Axl (rhAxl-Fc chimera; R&D Systems, Cat. no. 154-AL), mouse Axl (rmAxl-Fc chimera; R&D Systems, R&D Systems; Cat. no. 854-AX) and human Tyro3 (rhTyro3/Dtk-Fc chimera; R&D Systems, Cat. no. 859-DK) were immobilized on the surface of CM5 sensor chip using amine coupling at the surface density of 1,308.0, 2,115.9 and 1,429.0 RU, respectively. The Biacore runs were performed in an automatic mode using Binding analysis wizard.
(§3) The sample containing either MAb 10C9, MAb 10G5 or recombinant mouse (rm) Axl-ligand Gas6 (R&D Systems, Cat. no. 986-GS/CF) at concentration 10 μg/mL in HBS-EP buffer (GE Healthcare) was injected over the surfaces with immobilized antigens at flow rate of 30 μL/min for 3 min (association) followed by 5 min dissociation.
The sequence of Axl receptor from cynomolgus monkey (Macaca fascicularis; SEQ ID NO.43) was retrieved from WO2009062690A1. Based on the sequence, recombinant extracellular domain of cyno-Axl was generated by transient expression in CHO cells as a fusion protein with human Fc. The recombinant cyno-Axl-Fc was purified to homogeneity using Protein A-Sepharose (GE Healthcare). The binding experiments were performed using Biacore 3000 instrument (GE Healthcare) at 25° C. The soluble recombinant antigens corresponding to human Axl (rhAxl-Fc chimera; R&D Systems, Cat. no. 154-AL) and cyno-Axl were immobilized on the surface of CM5 sensor chip using amine coupling at the surface density of 775 and 880 RU, respectively. The Biacore runs were performed in an automatic mode using Binding analysis wizard.
The sample containing either MAb 10C9, MAb 10G5 or human Axl-specific MAb 5F11 (control) at concentration 10 μg/mL in HBS-EP buffer (GE Healthcare) was injected over the surfaces with immobilized antigens at flow rate of 30 μL/min for 3 min (association) followed by 5 min dissociation.
In addition, the Axl-binding properties of the chimeric antibodies c10C9 and c10G5 were tested using Biacore 3000 instrument (GE Healthcare) and a sensor chip CM5 coated with human Axl (rhAxl-Fc chimera; R&D Systems, Cat. no. 154-AL) at the surface density of 1,308.0 RU. The Biacore runs were performed in an automatic mode using Binding analysis wizard. The samples comprising either the chimeric antibodies c10C9 and c10G5 or their murine counterparts at concentration 10 μg/mL in HBS-EP buffer (GE Healthcare) were injected over the surfaces with immobilized antigens at flow rate of 30 μL/min for 3 min (association) followed by 5 min dissociation.

[2] = molecular target: T1, human Tyro3 (rhTyro3/Dtk-Fc chimera); experiment: Biacore binding analysis on immobilized human Tyro3; conditions: 10 μg/mL, 25° C.
Method: as §1, §2, §3

[3] = molecular target: T3, mouse Axl (rmAxl-Fc chimera) (Mus musculus, UniProt Q00993); experiment: Biacore binding analysis on immobilized mouse Axl; conditions: 10 μg/mL, 25° C.
T3 construct: The soluble recombinant antigens corresponding to human Axl (rhAxl-Fc chimera; R&D Systems, Cat. no; 154-AL), mouse Axl (rmAxl-Fc chimera; purchased R&D Systems 854-AX
T3 sequence (Q00993 19-445 limits assumed, change not shown): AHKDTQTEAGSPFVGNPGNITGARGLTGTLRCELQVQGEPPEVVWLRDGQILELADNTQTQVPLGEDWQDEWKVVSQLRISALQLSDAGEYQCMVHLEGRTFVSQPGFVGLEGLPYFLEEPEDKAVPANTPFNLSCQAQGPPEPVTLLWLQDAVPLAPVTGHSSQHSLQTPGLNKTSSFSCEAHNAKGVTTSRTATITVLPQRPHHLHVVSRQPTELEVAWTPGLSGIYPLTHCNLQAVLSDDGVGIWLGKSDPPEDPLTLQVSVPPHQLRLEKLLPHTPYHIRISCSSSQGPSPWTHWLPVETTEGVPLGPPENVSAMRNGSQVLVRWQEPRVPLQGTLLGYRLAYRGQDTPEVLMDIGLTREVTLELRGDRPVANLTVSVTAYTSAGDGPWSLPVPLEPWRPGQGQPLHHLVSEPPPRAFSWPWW
Method: as §2, §3

[4] = molecular target: T4, rhAxl-Fc chimera (recombinant human Axl) (Homo sapiens, UniProt P30530); experiment: Biacore surface plasmon resonance kinetic affinity determination on immobilized rhAxl-Fc; format: binding; conditions: chimeric antibodies, rhAxl immobilized on sensor chip, 25° C., 1:1 Langmuir binding model
T4 construct: Soluble recombinant antigens corresponding to the extracellular domains of members of the human TAM receptor family; purchased R&D Systems 154-AL
Method: Kinetic analysis of MAbs 10C9 and 10G5 interacting with rhAxl immobilized on the surface of the Biacore sensor chip. Overlay plots of sensograms for different antibody concentrations (1.3-666.7 nM for 10C9 and 0.3-166.7 nM for 10G5) are shown. The precise kinetic analysis was performed using BIA evaluation software and curve fitting according to 1:1 Langmuir binding model.
Kinetic analysis of chimeric antibodies c10C9 and c10G5 interacting with rhAxl immobilized on the surface of the Biacore sensor chip. Overlay plots of sensograms for different antibody concentrations (1.3-666.7 nM for c10C9 and 0.3-166.7 nM for c10G5) are shown. The precise kinetic analysis was performed using BIA evaluation software and curve fitting according to 1:1 Langmuir binding model.
Affinity determination of anti-Axl antibodies 10C9 and 10G5 was performed at 25° C. by surface plasmon resonance measurements using Biacore 3000 instrument (GE Healthcare). As a solid antigen-coated surface, a sensor chip CM5 with immobilized rhAxl-Fc chimera (R&D Systems, Cat. no. 154-AL) at density 190 RU was used.
For the kinetics measurements, different concentrations of anti-Axl antibodies (from 0.3 to 666.7 nM) in HBS-EP buffer (Biacore, Cat. no. BR-1001-88) were injected at flow rate of 30 μL/min with 3 min injection time followed by 5 min dissociation (buffer alone). After each cycle, the surface was regenerated by 30 sec injection of a regeneration solution (10 mM HCl, 1 M NaCl) at flow rate 50 μL/min.
The kinetic association (on-rate, kon) and dissociation (off-rate, koff) rates were calculated using BIAevaluation software and 1:1 Langmuir binding model. The equilibrium dissociation constant (KD) was calculated as the koff/kon ratio. The half-life (t1/2) of the formed antibody-antigen complexes was calculated as the ln 2/koff ratio.
Affinity determination of the chimeric anti-Axl antibodies c10C9 and c10G5 was performed at 25° C. by surface plasmon resonance measurements using Biacore 3000 instrument (GE Healthcare). As a solid antigen-coated surface, a sensor chip CM5 with immobilized rhAxl-Fc chimera (R&D Systems, Cat. no. 154-AL) at density 190 RU was used.
For the kinetics measurements, different concentrations of anti-Axl antibodies (from 0.3 to 333.3 nM) in HBS-EP buffer (Biacore, Cat. no. BR-1001-88) were injected at flow rate of 30 μL/min with 3 min injection time followed by 5 min dissociation (buffer alone). After each cycle, the surface was regenerated by 30 sec injection of a regeneration solution (10 mM HCl, 1 M NaCl) at flow rate 50 μL/min.

[5] = system: Axl-positive breast cancer cell line MDA-MB-231; experiment: Flow cytometry binding to Axl-positive MDA-MB-231 cells; format: cell-based, human; conditions: different antibody concentrations, MFI
Method: Different concentrations of mouse and chimeric antibodies were tested in flow cytometry for binding to triple-negative breast cancer cell line MDA-MB-231. The bound mouse and chimeric antibodies were detected with APC-conjugated donkey F(ab′)2 fragments specific for either mouse IgG (H+L), 1:500 dilution, or human IgG (H+L), 1:300 dilution, respectively (both from Jackson ImmunoResearch). The cell staining was measured using Accuri C6 flow cytometer (BD Biosciences). MFI, geometric mean fluorescence intensity.
The purified chimeric antibodies (>95% purity) were analysed for binding to Axl-positive breast cancer cell line MDA-MB-231 in flow cytometry. For comparison, the parental mouse MAbs 10C9 and 10G5 were used. For flow cytometry, the adherent cells in culture were washed with PBS, detached by treatment with trypsin (0.25%) for 1 min and hitting culture dish for full detachment. Trypsin was quenched by adding into the tissue flask the complete medium followed by washing the cells with PBS. During the washing steps, the cells were collected by centrifugation at 200 g for 5 min. The antibody was diluted for total concentration in PBS containing 0.02% bovine serum albumin (BSA). Cell staining was performed using 200 μL of cell suspension comprising 10^5 cells for 20 min at room temperature. The cell-bound antibodies were detected with APC-conjugated donkey anti-human or anti-mouse, respectively, IgG (H+L) F(ab′)2 fragments (Jackson ImmunoResearch). After two washing steps with PBS/0.02% BSA, the cells were resuspended in 200 μL and kept on ice before analysis on Accuri C6 flow cytometer (BD Biosciences).

Molecule	binding to human Axl [1]	binding to human Axl ([1]; listed as murine Gas 6)	binding to human Tyro3 [2]	binding to human Tyro3 ([2]; listed as murine Gas 6)	binding to mouse Axl [3]	binding to mouse Axl ([3]; listed as murine Gas 6)	Off-rate (koff; s^−1) [4]	On-rate (kon; M^−1s^−1) [4]	binding to MDA-MB-231 cells in flow cytometry [5]
mouse Gas6: recombinant mouse (rm) Axl-ligand Gas6 (R&D Systems), used as a control (protein) DQCTPNPCDKKGTHICQDLMGNFFCVCTDGWGGRLCDKDVNECVQKNGGCSQVCHNKPGSFQCACHSGFSLASDGQTCQDIDECTDSDTCGDARCKNLPGSYSCLCDEGYTYSSKEKTCQDVDECQQDRCEQTCVNSPGSYTCHCDGRGGLKLSPDMDTCEDILPCVPFSMAKSVKSLYLGRMFSGTPVIRLRFKRLQPTRLLAEFDFRTFDPEGVLFFAGGRSDSTWIVLGLRAGRLELQLRYNGVGRITSSGPTINHGMWQTISVEELERNLVIKVNKDAVMKIAVAGELFQLERGLYHLNLTVGGIPFKESELVQPINPRLDGCMRSWNWLNGEDSAIQETVKANTKMQCFSVTERGSFFPGNGFATYRLNYTRTSLDVGTETTWEVKVVARIRPATDTGVLLALVGDDDVVPISVALVDYHSTKKLKKQLVVLAVEDVALALMEIKVCDSQEHTVTVSLREGEATLEVDGTKGQSEVSTAQLQERLDTLKTHLQGSVHTYVGGLPEVSVISAPVTAFYRGCMTLEVNGKILDLDTASYKHSDITSHSCPPVEHAT	strong binding	binds strongly	somewhat weaker binding	more weakly	strong binding	binds strongly	–	–	–
c10C9: chimeric (mouse variable/human constant) IgG1 counterpart of antibody 10C9 (antibody, left off: a dimerising Fc or GST, chimeric (mouse variable/human constant) IgG1 counterpart of antibody 10C9) heavy: QVQLQQPGPELVKPGASVKISCKTSDYNFTRYYIHWVKQRPGQGLEWIGWIYPGTGDSKYNEKFKGRATLTADTSSSTAYMQLSSQTSEDSAVYFCARNGNYWYFDVWGAGTAVTVSS light: DIVMTQAAPSGPVTPGESVSISCRSSKSLLHSNGNTYLYWFLQRPGQSPQLLIYRMSNLASGVPDRFSGSGSGTAFTLRISRVEAEDVGIYYCMQHREYPFTFGGGTKLEIK	bind immobilized Axl with profiles very similar to the binding profiles of the corresponding mouse antibodies	–	–	–	–	–	0.000219 s⁻¹	2.16e+06 M⁻¹ s⁻¹	Dose-dependent binding

Source: patent US10208121B2, “Anti-Axl antagonistic antibodies” (BERGEN TEKNOLOGIOVERFORING AS, priority 2014, dated 2019)
